# Test results as given in the RNAGym collection of RNA variant scans (doi:10.7554/elife.80360).
# B1: Twister Ribozyme (parent)
# chain: AACACUGCCAAUGCCGGUCCCAAGCCCGGAUAAAAGUGGAGGGGGCGG
# Variants of: B1
# Experiment: self-cleavage, relative activity (ratio to wild type); higher = more cleavage; co-transcriptional
row,Variant,self-cleavage
1,AACACUGCCAAUGCCGGUCACAUGCCCGGAUAAAAGUGGAGGGGGCGG,0.0802
2,AACACUGCCAAUGCCGGUCACAGGCCCGGAUAAAAGUGGAGGGGGCGG,0.0659
3,AACACUGCCAAUGCCGGUUCCAAGCCCGGAUAAAAGUGGUGGGGGCGG,0.133
4,AACACUGCCAAUGCCGGUUCCAAGCCCGGAUAAAAGUGGCGGGGGCGG,0.152
5,AACACUGCCAAUGCCGGUUCCAAGCCCGGAUAAAAUUGGAGGGGGCGG,0.127
6,AACACUGCCAAUGCCGGUUCCAAGCCCGGAUAAAAAUGGAGGGGGCGG,0.167
7,AACACUGCCAAUGCCGGUUCCAAGCCCGGAUAAAAGUGGAGGCGGCGG,0.286
8,AACACUGCCAAUGCCGGUCGCAAGCCCGGAUAAAAGUGGAUGGGGCGG,0.0931
9,AACACUGCCAAUGCCGGUUCCAAGACCGGAUAAAAGUGGAGGGGGCGG,0.113
10,AACACUGCCAAUGCCGGUCACAAGCCCGGAUAAAAGUGGAGGGGGGGG,0.0871
11,AACACUGCCAAUGCCGGUCGCAAGCCCGGAUAAAAGUGCAGGGGGCGG,0.0945
12,AACACUGCCAAUGCCGGUCGCAAGCCCGGAUAAAAGUGAAGGGGGCGG,0.106
13,AACACUGCCAAUGCCGGUCGCAAGCCCGGAUAAAAGUGUAGGGGGCGG,0.0983
14,AACACUGCCAAUGCCGGUUCCAAGCCCGGAUAAAAGUGGAGGGGGUGG,0.907
15,AACACUGCCAAUGCCGGUUCCAAGCCCGGAUAAAAGUGGAGGGGGAGG,0.853
16,AACACUGCCAAUGCCGGUUCCAAGCCCGGAUAAAAGUGGAGGGGGGGG,0.929
17,AACACUGCCAAUGCCGGUUCCAAGCCCGGAUAAAAGAGGAGGGGGCGG,0.406
18,AACACUGCCAAUGCCGGUUCCAAGCCCGGAUAAAAGGGGAGGGGGCGG,0.621
19,AACACUGCCAAUGCCGGUCGCAAGCCCGGAUAAAACUGGAGGGGGCGG,0.168
20,AACACUGCCAAUGCCGGUCGCAAGCCCGGAUAAAAUUGGAGGGGGCGG,0.0382
21,AACACUGCCAAUGCCGGUCGCUAGCCCGGAUAAAAGUGGAGGGGGCGG,0.122
22,AACACUGCCAAUGCCGGUCGCCAGCCCGGAUAAAAGUGGAGGGGGCGG,0.147

row,Variant,self-cleavage
1,AACACUGCCAAUGCCGGUCACAAGGCCGGAUAAAAGUGGAGGGGGCGG,0.0839
2,AACACUGCCAAUGCCGGUCACAAGUCCGGAUAAAAGUGGAGGGGGCGG,0.112
3,AACACUGCCAAUGCCGGUUCCAAGCGCGGAUAAAAGUGGAGGGGGCGG,0.0861
4,AACACUGCCAAUGCCGGUUCCAAGCUCGGAUAAAAGUGGAGGGGGCGG,0.0803
5,AACACUGCCAAUGCCGGUUCCAAGCCCGGAUAAAAGUGGAGGGGUCGG,0.563
6,AACACUGCCAAUGCCGGUUCUAAGCCCGGAUAAAAGUGGAGGGGGCGG,0.0767
7,AACACUGCCAAUGCCGGUCGUAAGCCCGGAUAAAAGUGGAGGGGGCGG,0.115
8,AACACUGCCAAUGCCGGUCACAAGCCCGGAUCAAAGUGGAGGGGGCGG,0.111
9,AACACUGCCAAUGCCGGUCACAAGCCCGGAUGAAAGUGGAGGGGGCGG,0.145
10,AACACUGCCAAUGCCGGUCACAAGCCCGGAUAAAAGUAGAGGGGGCGG,0.0955
11,AACACUGCCAAUGCCGGUUCCAAGCCCGGAUAAAAGUGGAGGGGGCGC,1.04
12,AACACUGCCAAUGCCGGUUCCAAGCCCGGAUAAAAGUGGAGGGGGCGU,0.91
13,AACACUGCCAAUGCCGGUCGCAAGCCCGGAUAAAAGUGGAGGGUGCGG,0.0685
14,AACACUGCCAAUGCCGGUCGCAAGCCCGGAUAAAAGUGGAGGGAGCGG,0.18
15,AACACUGCCAAUGCCGGUCGCAAGCCCGGAUAAAAGUGGAGGGGGAGG,0.12
16,AACACUGCCAAUGCCGGUCGCAAGCCCGGAUAAAAGUGGAGGGGGUGG,0.119
17,AACACUGCCAAUGCCGGUUCCAAGCCCGGAUAUAAGUGGAGGGGGCGG,0.86
18,AACACUGCCAAUGCCGGUCACAAGCCCGGAUAAAAGUGGAGCGGGCGG,0.78
19,AACACUGCCAAUGCCGGUCGCAAGCCCGCAUAAAAGUGGAGGGGGCGG,0.0469
20,AACACUGCCAAUGCCGGUCGCAAGCCCGGGUAAAAGUGGAGGGGGCGG,0.233
21,AACACUGCCAAUGCCGGUCACAAGCCCGGGUAAAAGUGGAGGGGGCGG,0.114
22,AACACUGCCAAUGCCGGUUCCAAGCCUGGAUAAAAGUGGAGGGGGCGG,0.802

row,Variant,self-cleavage
1,AACACUGCCAAUGCCGGUCGCAAGCCCGGAUAAAAGUGGCGGGGGCGG,0.109
2,AACACUGCCAAUGCCGGUCGCAAGCCCGGAUAAAAGUGGUGGGGGCGG,0.0992
3,AACACUGCCAAUGCCGGUCACAAGCCCGGAUAUAAGUGGAGGGGGCGG,0.0982
4,AACACUGCCAAUGCCGGUUCCAAGCCCGUAUAAAAGUGGAGGGGGCGG,0.836
5,AACACUGCCAAUGCCGGUUCCAAGCCCGCAUAAAAGUGGAGGGGGCGG,0.438
6,AACACUGCCAAUGCCGGUCGCAAGCCCGGAUAAAAGUGGAGGGGGCGG,0.169
7,AACACUGCCAAUGCCGGUCACAAGCCCGGAUAAAAGUGGAGGGGGCGG,0.16
8,AACACUGCCAAUGCCGGUCACAAGCCCGGAUAAAACUGGAGGGGGCGG,0.0494
9,AACACUGCCAAUGCCGGUCACAAGCCCGGAUAAAAUUGGAGGGGGCGG,0.0906
10,AACACUGCCAAUGCCGGUCACAAGCCCGGAUAAAAGUGGAGGGCGCGG,0.146
11,AACACUGCCAAUGCCGGUUACAAGCCCGGAUAAAAGUGGAGGGGGCGG,0.107
12,AACACUGCCAAUGCCGGUUUCAAGCCCGGAUAAAAGUGGAGGGGGCGG,0.327
13,AACACUGCCAAUGCCGGUUGCAAGCCCGGAUAAAAGUGGAGGGGGCGG,0.0718
14,AACACUGCCAAUGCCGGUCGCAAGGCCGGAUAAAAGUGGAGGGGGCGG,0.0818
15,AACACUGCCAAUGCCGGUCACAAGCCCGGAUAAAAGUGGAAGGGGCGG,0.0878
16,AACACUGCCAAUGCCGGUCACAAGCCCGGAUAAAAGUGGAGGGGGCCG,0.108
17,AACACUGCCAAUGCCGGUCACAAGCCCGGAUAAAAGUGGAGGGGGCAG,0.0961
18,AACACUGCCAAUGCCGGUCACAAGCCCGAAUAAAAGUGGAGGGGGCGG,0.138
19,AACACUGCCAAUGCCGGUUCCAAGCCCGGAUAAAAGUGGAAGGGGCGG,0.134
20,AACACUGCCAAUGCCGGUUCCAAGCCCGGAUAAAAGUGGACGGGGCGG,0.104
21,AACACUGCCAAUGCCGGUCACAAGCCCGGAUAAAAGUGGAGGGGCCGG,0.161
22,AACACUGCCAAUGCCGGUCACAAGCCCGGAUAAAAGUGGCGGGGGCGG,0.129

row,Variant,self-cleavage
1,AACACUGCCAAUGCCGGUCACAAGCCCGGAUAAAAGUGGUGGGGGCGG,0.106
2,AACACUGCCAAUGCCGGUCACAAGCCCGGAUAAAAGUGGGGGGGGCGG,0.0838
3,AACACUGCCAAUGCCGGUCACAAGCCCGGAAAAAAGUGGAGGGGGCGG,0.14
4,AACACUGCCAAUGCCGGUCACAAGCCCGGAUAAAAGUGGAGGUGGCGG,0.105
5,AACACUGCCAAUGCCGGUCACAAGCCCGGAUAAAAGUGGAGGAGGCGG,0.118
6,AACACUGCCAAUGCCGGUCACAAGCCCGGAUAAAAGUGGAGGCGGCGG,0.0847
7,AACACUGCCAAUGCCGGUCACAAGCCCGGAUAAAAGUGGAGGGGGCGU,0.142
8,AACACUGCCAAUGCCGGUCACAAGCCCGGAUAAAAGUGGAGGGGGCGA,0.104
9,AACACUGCCAAUGCCGGUCGCAAGCCGGGAUAAAAGUGGAGGGGGCGG,0.0793
10,AACACUGCCAAUGCCGGUCGCAAGCCUGGAUAAAAGUGGAGGGGGCGG,0.0791
11,AACACUGCCAAUGCCGGUCGCAAGCCAGGAUAAAAGUGGAGGGGGCGG,0.102
12,AACACUGCCAAUGCCGGUCACCAGCCCGGAUAAAAGUGGAGGGGGCGG,0.126
13,AACACUGCCAAUGCCGGUUCCAAGCCCGGAUAAAAGUGGAGGGGGCUG,0.39
14,AACACUGCCAAUGCCGGUUCCAAGCCCGGAUAAAAGUGGAGGGGGCAG,0.763
15,AACACUGCCAAUGCCGGUCGCAAGCCCGGAUAAAAGUGGAGGGGACGG,0.102
16,AACACUGCCAAUGCCGGUCGCAAGCCCGGAUAAAAGUUGAGGGGGCGG,0.0717
17,AACACUGCCAAUGCCGGUCGCAAGCCCGGAUAAAAGUCGAGGGGGCGG,0.108
18,AACACUGCCAAUGCCGGUCGCAAGCCCGGAUAAAAGUAGAGGGGGCGG,0.0626
19,AACACUGCCAAUGCCGGUCACAAGCCCGGAUAAAAGUGAAGGGGGCGG,0.114
20,AACACUGCCAAUGCCGGUUCCAAGCCCAGAUAAAAGUGGAGGGGGCGG,0.758
21,AACACUGCCAAUGCCGGUUCCAAGCCCUGAUAAAAGUGGAGGGGGCGG,0.822
22,AACACUGCCAAUGCCGGUUCCAAGCCCGGAUAAGAGUGGAGGGGGCGG,0.601

row,Variant,self-cleavage
1,AACACUGCCAAUGCCGGUUCCAAGCCCGGAUAACAGUGGAGGGGGCGG,0.083
2,AACACUGCCAAUGCCGGUCGCAAGCGCGGAUAAAAGUGGAGGGGGCGG,0.093
3,AACACUGCCAAUGCCGGUCGCAAGCACGGAUAAAAGUGGAGGGGGCGG,0.0588
4,AACACUGCCAAUGCCGGUUCCAAGCCCGGAUAAAAGUGGAGCGGGCGG,0.221
5,AACACUGCCAAUGCCGGUUCCAAGCCCGGAUAAAAGUGGAGAGGGCGG,0.17
6,AACACUGCCAAUGCCGGUCACAAGCGCGGAUAAAAGUGGAGGGGGCGG,0.105
7,AACACUGCCAAUGCCGGUCACAAGCCCGGAUAAAGGUGGAGGGGGCGG,0.0546
8,AACACUGCCAAUGCCGGUCGCAAGCCCGGAUAAAUGUGGAGGGGGCGG,0.182
9,AACACUGCCAAUGCCGGUCGCAAGCCCGGAUAAAGGUGGAGGGGGCGG,0.094
10,AACACUGCCAAUGCCGGUCGCAAGCCCUGAUAAAAGUGGAGGGGGCGG,0.233
11,AACACUGCCAAUGCCGGUUCCAACCCCGGAUAAAAGUGGAGGGGGCGG,0.126
12,AACACUGCCAAUGCCGGUUCCAAGCCCGGAUAAACGUGGAGGGGGCGG,1.05
13,AACACUGCCAAUGCCGGUCGCAAGCCCGGAUAAAAGUGGAGGCGGCGG,0.101
14,AACACUGCCAAUGCCGGUCGCAAGCCCGGAUAAAAGUGGAGGUGGCGG,0.0978
15,AACACUGCCAAUGCCGGUCACAAGCCCGGAUAAGAGUGGAGGGGGCGG,0.104
16,AACACUGCCAAUGCCGGUCACAAGCCCGGAUAAUAGUGGAGGGGGCGG,0.0698
17,AACACUGCCAAUGCCGGUCGCAAGCCCGGAUAAUAGUGGAGGGGGCGG,0.074
18,AACACUGCCAAUGCCGGUCGCAAGCCCGGAUAAGAGUGGAGGGGGCGG,0.0924
19,AACACUGCCAAUGCCGGUCGCACGCCCGGAUAAAAGUGGAGGGGGCGG,0.118
20,AACACUGCCAAUGCCGGUCGCAUGCCCGGAUAAAAGUGGAGGGGGCGG,0.121
